Data: patent US20260265403A1

What was measured:
CD24-his protein (human) [1] = target: CD24-his protein (human) (UniProt P25063); assay: ELISA, CD24-his(HEK 293) [Cont'd) B]
[2] = target: human CD24 on cells (human) (UniProt P25063); assay: flow cytometry (GMFI), NALM6 cells
Human CD24 (human) = Human CD24 (human) (UniProt P25063); assay: Biacore (SPR); antibody as ligand, human CD24 as analyte
[3] = target: human CD24 on cells (human) (UniProt P25063); assay: flow cytometry (GMFI), OVCAR3 cells
CD24-his-GST(Ecoli) = assay: ELISA, CD24-his-GST(Ecoli) [Cont'd) B]
CD24-his-GST(Ecoli), sequence (chain, as listed by the source limits assumed): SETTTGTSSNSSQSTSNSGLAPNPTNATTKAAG

[4] = target: human CD24 on cells (human) (UniProt P25063); assay: flow cytometry (GMFI), MC38-hCD24 cells [Cont'd) C]
[5] = target: human CD24 on cells (human) (UniProt P25063); assay: flow cytometry (GMFI), MCF-7 cells
[6] = target: human CD24 on cells (human) (UniProt P25063); assay: flow cytometry (GMFI), MCF-7 cells [Cont'd) C]
[7] = target: human CD24 on cells (human) (UniProt P25063); assay: flow cytometry (GMFI), A549 cells
CD24-his protein (human) [8] = target: CD24-his protein (human) (UniProt P25063); assay: Siglec10-PE competition assay (gMFI on the sheet); legend: Siglec-10-his-Biotin mixed with the antibody, plate coated with CD24 protein
CD24-his protein (human) [9] = target: CD24-his protein (human) (UniProt P25063); assay: ELISA, CD24-his (HEK 293), unit taken from the concentration axis
[10] = target: human CD24 on cells (human) (UniProt P25063)
[11] = target: human CD24 on cells (human) (UniProt P25063); assay: flow cytometry (MFI), MCF-7 cells [Cont'd) B]
[12] = target: human CD24 on cells (human) (UniProt P25063); assay: flow cytometry (MFI), NALM6 cells [Cont'd) B]
[13] = target: human CD24 on cells (human) (UniProt P25063); assay: flow cytometry (GMFI), MCF-7 cells; EC50 table under the graphs
[14] = target: human CD24 on cells (human) (UniProt P25063); assay: flow cytometry (GMFI), SKOV3 cells; EC50 table under the graphs [Cont'd) B]
[15] = target: human CD24 on cells (human) (UniProt P25063); assay: cell-based or functional assay

human CD24 on cells (human), sequence (P25063 27-59): as the sequence (chain, as listed by the source limits assumed) above
CD24-his protein (human), sequence (P25063 27-59 limits assumed): as the sequence (chain, as listed by the source limits assumed) above
Human CD24 (human), sequence (P25063 27-59 limits assumed): as the sequence (chain, as listed by the source limits assumed) above

Work on GB7011 (antibody) yielded an EC50 (read off the curve) (CD24-his protein (human) [1]) of 0.02 µg/mL, an EC50 (read off the curve) [2] of 0.6 µg/mL and a Kd (Human CD24 (human)) of 12.4 nM. For the same substance, the koff (Human CD24 (human)) was 0.0104 s⁻¹, the kon (Human CD24 (human)) was 839000 M⁻¹ s⁻¹ and the EC50 (read off the curve) [3] was 0.7 µg/mL. For the same substance, the EC50 (read off the curve) (CD24-his-GST(Ecoli)) was 0.02 µg/mL, the EC50 (read off the curve) [4] was 0.3 µg/mL and the EC50 (read off the curve) [5] was 0.3 µg/mL. It also gave an EC50 (read off the curve) [6] of 0.4 µg/mL, an EC50 (read off the curve) [7] of 0.3 µg/mL and an IC50 (read off the curve) (CD24-his protein (human) [8]) of 2 µg/mL. The EC50 (CD24-his protein (human) [9]) was 0.0202 µg/mL.
In the case of anti-CD24 ab(SN3) (antibody), the EC50 (read off the curve), phagocytosis of NALM6 cells [10] is reported as 0.3 µg/mL, the EC50 (read off the curve), phagocytosis of OVCAR3 cells [10] is reported as 0.7 µg/mL and the EC50 (read off the curve) [11] is reported as 0.1 µg/mL. It also gave an EC50 (read off the curve) [12] of 0.09 µg/mL.
In the case of IMM47H (antibody), the EC50 [13] is reported as 0.53 µg/mL, the EC50 (read off the curve) (CD24-his protein (human) [1]) is reported as 0.03 µg/mL and the EC50 (read off the curve) [2] is reported as 0.3 µg/mL. The Kd (Human CD24 (human)) was 165 nM, the EC50 (read off the curve) [3] was 0.4 µg/mL and the EC50 (read off the curve) [5] was 0.5 µg/mL. For the same substance, the EC50 (read off the curve) [6] was 0.3 µg/mL, the EC50 (read off the curve) [7] was 0.3 µg/mL and the EC50 (CD24-his protein (human) [9]) was 0.0277 µg/mL. The EC50 [14] was 0.38 µg/mL.
human isotype IgG4 (antibody) was tested, and the EC50 [13] was 12.9 µg/mL and the EC50 [14] was 3.48 µg/mL.
NS-17(SWA11) (antibody) was tested, and the EC50 of Phagocytosis assay, IgG1, Kappa; MCF-7 [15] was 0.02 µg/mL, the EC50 of Phagocytosis assay, IgG1, Kappa; NALM6 [15] was 1.01 µg/mL and the EC50 of Phagocytosis assay, IgG1, Kappa; OVCAR3 [15] was 0.91 µg/mL. It also gave an EC50 of Phagocytosis assay, IgG4, Kappa; MCF-7 [15] of 0.09 µg/mL and an EC50 of Phagocytosis assay, IgG4, Kappa; NALM6 [15] of 0.18 µg/mL.
